Target: Non-muscle actin (99% pure; 80% β-actin, 20% γ-actin), polymerized (UniProt P60709)
Test: co-sedimentation; actin filaments first bundled with α-actinin for 30 min at room temperature, CRP1 then added for a further 30 min, 10,000 x g; supernatant and pellet on gel, Gelcode Blue

α-actinin purified from chicken gizzard (from UniProt P05094 1-893) (natural protein)
fold increase of α-actinin in the actin bundles with CRP1 added, against without CRP1: 2 fold

Source: PMC1318456
